Assay: soluble on expression in E. coli; label from the status in PepcDB or PDB records

Soluble on expression in E. coli, soluble:
MGSDKIHHHHHHMIRIKTPSEIEKMKKAGKAVAVALREVRKVIVPGKTAWDVETLVLEIFKKLRVKPAFKGYGGYKYATCVSVNEEVVHGLPLKEKVFKEGDIVSVDVGAVYQGLYGDAAVTYIVGETDERGKELVRVTREVLEKAIKMIKPGIRLGDVSHCIQETVESVGFNVIRDYVGHGVGRELHEDPQIPNYGTPGTGVVLRKGMTLAIEPMVSEGDWRVVVKEDGWTAVTVDGSRCAHFEHTILITENGAEILTKEG

Soluble on expression in E. coli, not soluble:
MGSDKIHHHHHHMIQPRIRQNPFETYEEVAEGFEDLLAPLELFFDREYQGHLDLGTHGTVYSKGTRDAEAFLRPLWGLGPYVTQNESEYLNDFLTGIIEGTDPESSSYWGKTKDYDQLIVEMAALSTFLLLNKEKTWDQLTKEQQNNLHSWLIQANENIIPPNNWHFFRVLLNLAMKHCEMPYSKEQIAVDLAVIDRFYVGNGWYYDGVETQVDYYVSFAIHYYSLLYCRFAPEDTARVAIMKERATLFAQEFKYWFTQPGEAIPFGRSLTYRFAQVSFFSALVFADVEALPWGEIKGLISRHLHQWMNKDIFTTDGLLSVGYDYQNMVFAEGYNGPGSPYWAFKTFILLAVPKDHPYWQAETQPISFPEKHLPSPESRNYYQVNDAGTHGLMFPAGQFINYQAHAHDKYSKFVYSSHFGFSTIKSDYWYYEGAYDNCLALAEDDHYFRTKGLDDQYEILDDRIIHQWHPWSDVAIKTTIVPLEGQHLRIHEIETQRALVAYEGGFSIPLFDEKVTCVSDQMAEVKNAKGVSKVENINGFSEAAIIRTEPNTNLLYPLTELPYLKANLSKGKHLLISLVTGVLPNEQIEPVKVRLKENQLLVEEKVVILGN, MGSDKIHHHHHHMIRIENISKQNSHRLLFIEASAALNKGEKIGLVGPNGAGKTTLFRMITGEELPDEGQVATEKGVTIGYFNQDVGEMSGRSAVAEVMDGAGPVSTVAAELRELEGAMSDPDRMDEMDAIIERYGEVQARYEELDGYALEGRAREVLDGLSFSQEMMDGDVGKLSGGWKMRVALARILLMRPDVMLLDEPSNHLDLESLIWLESFLKNYDGALLMTSHDREFMNRIVTKIIEIDGGSLTSYSGDYGFYEGQRAQNEKQQQAQFERQQAMLAKEIKFIERFKARASHAAQVQSRVKKLDKIDRVEPPRRRQTVAFDFLPAPRSGDDVINIKNVHKAYGSRTIYQGLDFMVRRRERWCIMGINGAGKSTLLKLVAGTTEPDQGTVSIGASVKLGYFAQHAMDVLDGDSTVLQWLEESFPKAGQAPLRALAGCFGFSGDDVEKRCRVLSGGEKARLVMAAMLFDPPNLLVLDEPTNHLDLDTKEMLIKALSAYEGTMLFVSHDRHFLAALSNRVLELTPDGIHQYGGGYTEYVERTGQEAPGLHAA, MGSDKIHHHHHHMISDLESLGIDFKDEGENYVPKKDYSGNLVAKYVFDSNGISTDNITLKDLSGHGYDGTMSGVSIKDDSELGKCAYFNGSASVNFNNQIIPKGNKTIIITFKKDSGTQSNGQYEFLIEQGSGQGESITSWSIRFDSYKTACLNNLYFCNDDSKINMLNSHPAVFNVCDGKKHTAIFNYYDNKTNNTYCDSLKAHVCSFDFNGGEYRTADNSIIGQKYVGYIKSIEIYDDVVEFNSISTGTSLNKNIDQLIIGQTDNLVATIMPEDVTDKSVIWSSSDPSIVAVDENGKITALKVGEVSITVTTNDGSNLSQTCMVAVIDTTIPDKACLNISMTNGQVKQYYVGMDLVNKFISWYKLRSAGSEEPFYEFDITQLSEPGILRHDYVVFNKISSFTVDDYVK, MGSDKIHHHHHHMISRTMQQQVNSSSIIRAMFEEGKRLSALYGADNVYDFSLGNPNVEPPAEVKQAIMDILNEENSTTVHGYMNNSGFEDVRGAIAASLNQRFATGFAADNILMTVGAAGGLNVIFKTLLNPEDEVLTFAPFFGEYRNYVQNYQGQLIVVSPNTKDFQPNLEELKEKISPRTKAVLINSPNNPTGVVYSAETIAALVDILRAKQEEYGTVIYLIGDEPYRELAYDQVEVPYLTKYYENTIVGYSYSKSLSLPGERIGYLVIPREAADYENLIAAANIANRILGFVNAPSLFQRVIAKCLDAQVNLDSYNRNRELLYNALVSYGYQCIKPEGAFYLFIKTPLENDLEFCTLAKSKNILIVPGTSFACPGYARIAYCVAYETIERALPGFEALINEVSWASA, MGSDKIHHHHHHMISVGKGKIMITPDHNIIKPIAIVLPQFHPIRENNLWWGEGFTEWTNVVKGRPRFRGHYQPHLPKDLGYYDLRLPETRKAQAALATKYGIYGFCYYHYWFNGRRILESPVDAMLESGEPDFPFMLCWANENWTRNWDGSYNKVLLEQKYSKEDFVNHARHLIRYFKDDRYIKIDGRPVFAIYKDDIGEDIEKYLLLFRNELLKNSINVFLCRFERNIGTSRDLNRAFQVFDAGIEFQPLARQFSYLINYNNRLSRRIYKTLKKHFCFCKNIDDVYVYSHLVDNDLKYDFQQGWPIFPGVCPGWDNSARRRDTTAIIFDKSTPEIFKLWVREKIRITDWNLLPERFLFVNAWNEWAEGNHLEPCEKWGTQYLAALQAGINEM, MGSDKIHHHHHHMITASIVTYHHHFKDIRKVIECILSSPVSILYIIDNSSNDRLRELAKISAKIKYIHSVNLGYGAGHNIAIRESIDIGATYHIVVNPDIYFEEGVIEKLIIYMNKYSEVGLVMPRVLYPNGELQYLCKLLPTPFDLLFRRFLPWRRYVEKKNEKYELRFTNYSREMEVPSLSGCFMFVRIAVLKKVGGFDERYFMYAEDLDLCRRIGKVSRTMYYPNVVVYHEYAKGSYKNRRLLRYHLSSVVKYFNKWGWVWDLDRKIINKRILDNLKNV, MGSDKIHHHHHHMIVALFALLASGCGHSQRTLEFRGICVDDPQGENGLYNPGRGFRLETAVDVLHEKDTPTEELNELSAKYVADSVSLSQSYFYLTYLIGKELSEENFRTMQAYFDELQKQGKKAVLRFAYERDFMGRSPVGPTGEQILAHLDQLKPFLEKNKDLILVVQAGMIGAWGEWHSSVQGLENSEETKAAVLEKLLSVVPAERNVQVRLPEFKNLLKDKPELYKRLSFHDDFIVIRPDRWDADMHEGTPKFDQIVAESPYLVVDGELPWGFWSVGADPDSPSAGWIIDGMQAARRLFLQHYTSLSIIHNYKEQHPNNRFDENNPPEYSMVVWKKTMITEDSLLQHHMPVSDSYFRKKDGTKVKRNMFDYIRDHLGYRIELQSLQLPSKFVSGKENVLKLSLKNRGFATVFGEHPVYFVLIDDAGEVTEFPTDANPKNWQPFEPKDSAYTSLMHTVDVSLELPASVTAGTYKLGLWIPDGSDRLRYNPRYAIHCANGDTDWWISKDGKYGVNVLTAVEVE, MGSDKIHHHHHHMIVEMTGIHKSFSGNPVLKDVSFTLEKGEIHALMGENGAGKSTLMKILTGIYERDSGTVKIKGREVHYKHPKEAEADGLAVIHQELNILPELTVAENLFVGKERTYGKTGWIKSKEMNRLAEEKLAELGLKVKGTERAGNLSVGKQQLIEIAKALMTNADIIIMDEPTAALTDREIDTLFATVRELQKKGVTFVYISHRMEEIFSLCQRITVLRDGEYVGTKVIAETSFDEIVKMMVGRALGNRFPEHTLTPGDVKLEIKHLTRAGEFENVSLSVRAGEILGISGLMGAGRSELVETIFGYRKADSGEVWIDGKQAAIKGPDQAIAQGIGFVSEDRKSKGLIVDFSIRDNISLTNLSRISTSSWISSEKERSLYEELAKKLHVKASGPSQQAKSLSGGNQQKIVIAKWLGIEPKILILDEPTRGVDVGAKKEIYTIMNELAKQGVAIIMVSSELPEVIGLSTRVAVMFEGKLMHILERDELSEETIMHYATGGDKHVRQ, MGSDKIHHHHHHMIVMDAETLKELIRDDFEVINANETVSKLFPMLEKLDRDKANAILVEEDGKIVGVVREKDLIRGSVLKNPHETKVKSLLVRTGKIDLNELDPYKVARRFVEDSTPFVIVQIDDKRVGVIYINDFLSALKDEFKDVKVREVMNPEVITVRRFDSAAKALSVMRTHGIDRVVVVDENNKVIGILTGKDVVDRVISPRKRARMGDSSGEKEKTLSIMVESIMSSPVVSVSRNDSVAEVIDLMVENRISSVVVTRDGLPDGIVIKKDILEYYLKKESRKEFNVQISTADITLDEFDREAILEDVEKLMRKFSDFLGESFLFIYIKRHKEHFRNLPLIHVRLKLASEKGNFMVSGESWGVEYAVHVALKKLEREILKEKELLEDKRMIKRFYEEVLEY, MGSDKIHHHHHHMKASLEQSSLPCRRFGRTGLSMPVLSLGGMRFQQSWTDLEAEVITSESQQLLKDILERAVACGFHHVETARHYGSSERQLGWALRDVLDPQRLLQSKVPPREDPKVFEAELALSFERLGCERLDLVAIHGLNLSEHLEQTLRPGGCMDVLRRWQGDGRIGHVGFSTHGPTDLIVQAIETDAFDYVNLHWYFIYQDNDPALDAAARHDLGVFIISPTDKGGHLHSPSSQLLELCAPLHPIVFNDLFCLQDPRVHTISVGAARPSDLDRHLEAVDLLQSAAELLPPVQQRLVDAAQLALGEAWWTSWQRGLPPWQESPGEINLPILLWLHNLVEAWGMEGYAKARYGLLGSGSHWFPGANAEALDADVSETALREVLVNSPWCDQIPGLLRRLRNRLGGHPQQRLTSV, MGSDKIHHHHHHMKAYAFGFPKIGEKREFKKALEDFWKGKITEEQFEEEMNKLRMYMVENYRKNVDVIPSNELSYYDFVLDTAVMVGAVPERFGEYRGLSTYFDMARGGKALEMTKFFNTNYHYLVPEIETEEFYLLENKPLEDYLFFKSKGIETAPWVIGPFTFLYLSKRNGEWIRRPNQMEKLLESLVSVYKEVFEKLVENGCKEILVNEPAFVCDLEKAHWDLILNVYRELSEFPLTVFTYYDSVSDYEACVSLPVKRLHFDFVSNEENLKNLEKHGFPEDKKLVAGVINGRQPWKVDLRKVASLVEKLGASAISNSCPLFHLPVTLELENNLPGGLKEKLAFAKEKLEELKMLKDFLEGKTFDLPNVSFEDFAVDLQAVERVRNLPEDSFRREKEYTERDRIQRERLNLPLFPTTTIGSFPQTPEVRKMRSKYRKGEISKEEYEAFIKEQIKKAIELQEEIGLDVLVHGEFERTDMVEFFAEKLNGIATTQNGWVLSYGSRCYRPPIIYGTVTRPEPMTLKEITYAQSLTEKPVKGMLTGPVTIMSWSYYREDIPEREIAYQIALAINEEVKDLEEAGIKIVQIDEPAFREKAPIKKSKWPEYFEWAINAFNLAANARPETQIHAHMCYSDFNEIIEYIHQLEFDVISIEASRSKGEIISAFENFKGWIKQIGVGVWDIHSPAVPSINEMREIVERVLRVLPKELIWINPDCGLKTRNWDEVIPSLRNMVALAKEMREKFES, MGSDKIHHHHHHMKDMTNLDNFEVGFDIPAKPGMDAAEIQTPCLVLDLDALERNVKKMGDYAKAHGMRHRVHGKMHKSVDVAKLQERLGGAVGVCCQKVSEAEVFVRGGIKDVLVSNQVRDPLKIDRLAQLPKLGSRIIVCVDDLANVADLSAAALRHGTELEVLIEIDCGAGRCGVGTTQDVVAIARAVDAAENLKFTGIQAYQGAMQHLDKYEDRKAKLDIAIEMVESAVQGLKAVGLDPELVSGGGTGSYYFEANSGVYNELQCGSYAFMDADYGRILDQNGQRIDKGEWENAMFILTQVMSHAKADKAIVDAGLKAQSVDSGLPFVHGRDDVEYIKCSDEHGVVADPNGVLKVGDKLRLVPGHCDPTANVHDWYVGVRGGKVECVWPVSARGKAY, MGSDKIHHHHHHMKELAIASRDLVSPDGLAGYLRFVNAQPLLRPEEERDLARRLRDHGDVDAAKDLVLSHLRFVVRVARGYRGYGLQEADLIQEGNIGLMKAVKRYDPDHGVRLVSFAVHWVKAEIHEFILRNWRIVKVATTKAQRKLFFNLRSSRSHTGWMSGEESAAMADDLGVTQAQVLEMEGRMSGYDYSLNLEPDEEREGGRAPDLADPTGSPIEQLVERDWDQQQHRALHTALSALPQRDRYIIENRWLSDDPKTLQVLGDELGVSAERVRQLEKSSMGKLRQQMLTTAAVA

From the DeepSol protein solubility set
